Data set [1] deals with T1, S-AC4 (SLCMV AC4) (Sri Lankan cassava mosaic virus).
T1 chain: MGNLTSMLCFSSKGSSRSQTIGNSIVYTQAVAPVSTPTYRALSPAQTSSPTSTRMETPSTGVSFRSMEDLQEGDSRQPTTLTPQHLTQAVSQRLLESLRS
Kind of data set: EMSA. Conditions: tags: GST fusion (pET41a), Ni-NTA purified; label: 5'-32P. On the technique in general: In EMSA bound probe runs differently from free probe, usually more slowly.

Data set [2] has as its target T1, S-AC4 (SLCMV AC4). The experiment in a line: EMSA; text cites SEQ ID NO:29 (DNA probe); RNA oligo listed as SEQ 38. As to conditions: tags: GST fusion (pET41a), Ni-NTA purified; label: 5'-32P.
Another data set deals with T2, E-AC2 (EACMCV AC2) (East African cassava mosaic Cameroon …).
T2 chain: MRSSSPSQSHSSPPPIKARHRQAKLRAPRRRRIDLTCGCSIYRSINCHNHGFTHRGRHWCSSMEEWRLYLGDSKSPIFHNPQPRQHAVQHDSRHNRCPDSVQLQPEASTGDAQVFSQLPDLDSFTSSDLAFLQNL
The experiment in a line: EMSA. As to conditions: tags: GST fusion (pET41a), Ni-NTA purified; label: 5'-32P.

Data set [3] addresses T1, S-AC4 (SLCMV AC4). Kind of data set: EMSA; as efficient as unmodified. As to conditions: tags: GST fusion (pET41a), Ni-NTA purified; label: 5'-32P.
A further data set addresses T3, E-AC4 (EACMCV AC4) (East African cassava mosaic Cameroon …).
T3 chain: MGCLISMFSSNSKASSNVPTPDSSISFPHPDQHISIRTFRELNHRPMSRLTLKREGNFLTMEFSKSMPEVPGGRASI
The experiment in a line: EMSA; data not shown. As to conditions: tags: pET41a, Ni-NTA purified; label: 5'-32P.

The target of data set [4] is T1, S-AC4 (SLCMV AC4). The experiment in a line: EMSA; competed by 10-, 50-, 100-fold unlabelled miR165. As to conditions: tags: GST fusion (pET41a), Ni-NTA purified; label: 5'-32P.

B1: miR34 (ssRNA)
RNA: AGGCAGUGUGGUUAGCUGGUUG
Turning to B1, in the data set with S-AC4 (SLCMV AC4) [1], the binding result is listed as “binds”.

B2: ta-siRNA siR255 (ssRNA)
RNA: AUGCGAUACAACCUGAAUCUU
In the case of B2, the binding result with S-AC4 (SLCMV AC4) [2] is recorded as “binds”.

B3: lin-4 (ssRNA)
RNA: UCCCUGAGACCUCAAGUGUGA
With B3, the binding result in the data set with S-AC4 (SLCMV AC4) [1] is listed as “binds”.

B4: DmiR-165::DmiR-165* DNA duplex (dsDNA)
DNA 1: TCGGACCAGGCTTCATCCCCC
DNA 2: GGGGGATGAAGCCTGGTCCGA
With B4, in the data set with S-AC4 (SLCMV AC4) [1], the binding result is reported as “no binding”.

B5: ta-siRNA siR255::siR255* duplex (dsRNA)
RNA 1: AUGCGAUACAACCUGAAUCUU
RNA 2: GAGAUUCAGGUUGCAUCGCGC
For the molecule B5, in the data set with S-AC4 (SLCMV AC4) [1], the binding result is reported as “binds”.

B6: DmiR-165 DNA (ssDNA)
DNA: TCGGACCAGGCTTCATCCCCC
On to B6, for which the binding result in the data set with S-AC4 (SLCMV AC4) [1] is recorded as “no binding”.

B7: miR159* (ssRNA)
RNA: GAGCUCCUUAAAGUUCAAACA
As for B7, the binding result in the data set with E-AC2 (EACMCV AC2) is listed as “no binding”.

B8: 2'-O-methyl miR165 (ssRNA)
RNA: UCGGACCAGGCUUCAUCCCCC
modifications: 2'-OMe at last (3') nucleotide
In the case of B8, the binding result with S-AC4 (SLCMV AC4) [3] is reported as “binds”.

B9: miR159 (ssRNA)
RNA: UUUGGAUUGAAGGGAGCUCUA
As to B9, the binding result is recorded as “no binding” with E-AC2 (EACMCV AC2), “binds” in the data set with S-AC4 (SLCMV AC4) [1] and “no binding” with E-AC4 (EACMCV AC4).

B10: pre-miR159 first strand (ssRNA)
RNA: UAAAAAAGGAUUUGGUUAUAUGGAUUGCAUAUCUCAGGAGCUUUAACUUGCCCUGUUAAUGCUUUUACUCUUCUUUGGCUUGAAGGGAGCUCUAC
Take B10: the binding result with S-AC4 (SLCMV AC4) [1] was “no binding”.

B11: pre-miR159 duplex (dsRNA)
RNA 1: B10 RNA
RNA 2: GUAGAGCUCCUUAAAGUUCAAACAUGAGUUGAGCAGGGUAAAGAAAAGCUGCUAAGCUAUGGAUCCCAUAAGCCCUAAUCCUUGUAAAG
Take B11: the binding result in the data set with S-AC4 (SLCMV AC4) [1] is listed as “no binding”.

B12: miR165 (ssRNA)
RNA: UCGGACCAGGCUUCAUCCCCC
For the molecule B12, the binding result with S-AC4 (SLCMV AC4) [4] is “binds”.

The values above are taken from patent US20070066521, “Short RNA-binding proteins” (published 2007).
